Data taken from patent US7892771B2, “Crystal structure of soluble glutaminyl cyclase” (Academia Sinica, priority 2006, dated 2011).
Positions count from the first letter of the chain named. Names may count otherwise.

B1: R54W: site-directed mutant R54W of human QC (protein)
chain: MAGGRHRRVVGTLHLLLLVAALPWASRGVSPSASAWPEEKNYHQPAILNSSALWQIAEGTSISEMWQNDLQPLLIERYPGSPGSYAARQHIMQRIQRLQADWVLEIDTFLSQTPYGYRSFSNIISTLNPTAKRHLVLACHYDSKYFSHWNNRVFVGATDSAVPCAMMLELARALDKKLLSLKTVSDSKPDLSLQLIFFDGEEAFLHWSPQDSLYGSRHLAAKMASTPHPPGARGTSQLHGMDLLVLLDLIGAPNPTFPNFFPNSARWFERLQAIEHELHELGLLKDHSLEGRYFQNYSYGGVIQDDHIPFLRRGVPVLHLIPSPFPEVWHTMDDNEENLDESTIDNLNKILQVFVLEYLHL
B2: K144A: site-directed mutant K144A of human QC (protein)
chain: B1 chain with W54R, K144A
B3: F146A: site-directed mutant F146A of human QC (protein)
chain: B1 chain with W54R, F146A
B4: W207F: site-directed mutant W207F of human QC (protein)
chain: B1 chain with W54R, W207F
B5: W329A: site-directed mutant W329A of human QC (protein)
chain: B1 chain with W54R, W329A
B6: Q304L: site-directed mutant Q304L of human QC (protein)
chain: B1 chain with W54R, Q304L
B7: E201D: site-directed mutant E201D of human QC (protein)
chain: B1 chain with W54R, E201D
B8: W207L: site-directed mutant W207L of human QC (protein)
chain: B1 chain with W54R, W207L
B9: F325A: site-directed mutant F325A of human QC (protein)
chain: B1 chain with W54R, F325A

Test system: human QC
Experiment: Kinetic parameters of wild-type and mutant human QC
Type: biochemical
Details: pH 8.0

In order of rising Km:
1. B4  590 ± 50 µM
2. B1  760 ± 40 µM
3. B3  820 ± 160 µM
4. B6  1160 ± 90 µM
5. B2  1470 ± 20 µM
6. B8  1770 ± 70 µM
7. B9  4670 ± 240 µM
8. B7  12600 ± 2980 µM
9. B5  29500 ± 2290 µM

In order of falling kcat:
1. B9  12.91 ± 0.06 s⁻¹
2. B2  11.67 ± 0.34 s⁻¹
3. B6  9.39 ± 1.18 s⁻¹
4. B3  7.91 ± 2.14 s⁻¹
5. B1  7.35 ± 0.26 s⁻¹
6. B4  2.32 ± 0.07 s⁻¹
7. B5  1.35 ± 0.07 s⁻¹
8. B7  0.87 ± 0.28 s⁻¹
9. B8  0.43 ± 0.01 s⁻¹
